Data taken from paper doi:10.1101/2025.06.13.659133, “Anti-activin treatment increases T cell infiltration in breast and pancreatic tumours and promotes survival in a SMAD4-null mouse pancreatic cancer model” (bioRxiv, 2025).
Blank lines part the entries; values can stand above or below the binder they belong to.

Legend:
Noggin = target: T1, Noggin (UniProt Q13253 28-232); test: SPR; activin A, TGF-β3 or BMP2 immobilised on a CM4 chip (EDC-NHS, up to 400 RU); antibodies or control binders flowed over; BIAcore T200; 10 mM CHES, 150 mM NaCl, 3 mM EDTA, 0.01% P20, pH 8.0; 1:1 kinetic model; conditions: both partners purified
T1 construct: Noggin, bought from Peprotech; source: bought: Peprotech
T1 sequence (looked up): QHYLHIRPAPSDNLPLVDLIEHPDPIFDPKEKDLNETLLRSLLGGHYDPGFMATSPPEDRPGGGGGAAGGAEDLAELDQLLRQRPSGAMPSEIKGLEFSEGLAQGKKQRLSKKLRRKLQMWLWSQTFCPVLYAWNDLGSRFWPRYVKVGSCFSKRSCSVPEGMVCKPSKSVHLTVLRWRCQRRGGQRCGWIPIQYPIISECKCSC

ACVR2B-ECD (used in SPR) = target: T2, ACVR2B-ECD (used in SPR) (UniProt Q13705 19-137); test: as above; conditions: both partners purified
T2 construct: also called ACVR2B extracellular domain (ECD)
T2 sequence (looked up): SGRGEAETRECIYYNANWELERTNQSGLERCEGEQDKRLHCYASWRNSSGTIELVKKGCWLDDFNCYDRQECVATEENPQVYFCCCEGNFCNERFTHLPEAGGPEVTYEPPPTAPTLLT

Kd (Noggin): 1.26 nM
B1: BMP2 (ligand, UniProt P12643 283-396, looked up)
chain: QAKHKQRKRLKSSCKRHPLYVDFSDVGWNDWIVAPPGYHAFYCHGECPFPLADHLNSTNHAIVQTLVNSVNSKIPKACCVPTELSAISMLYLDENEKVVLKNYQDMVVEGCGCR
notes: BMP2, bought from Peprotech; source: bought: Peprotech

Kd (ACVR2B-ECD (used in SPR)): 114 nM
B2: activin A (immobilised on the SPR chip) (ligand, UniProt P08476 311-426, looked up)
chain: GLECDGKVNICCKKQFFVSFKDIGWNDWIIAPSGYHANYCEGECPSHIAGTSGSSLSFHSTVINHYRMRGHSPFANLKSCCVPTKLRPMSMLYYDDGQNIIKKDIQNMIVEECGCS
